# Substitutions are numbered along the chain they refer to. Like-named read-outs stand apart in the source and are kept apart here.
# T1: human Dectin-1 isoform A on HEK-Blue hDectin-1a cells (human, UniProt Q9BXN2 1-247)
# T1 sequence: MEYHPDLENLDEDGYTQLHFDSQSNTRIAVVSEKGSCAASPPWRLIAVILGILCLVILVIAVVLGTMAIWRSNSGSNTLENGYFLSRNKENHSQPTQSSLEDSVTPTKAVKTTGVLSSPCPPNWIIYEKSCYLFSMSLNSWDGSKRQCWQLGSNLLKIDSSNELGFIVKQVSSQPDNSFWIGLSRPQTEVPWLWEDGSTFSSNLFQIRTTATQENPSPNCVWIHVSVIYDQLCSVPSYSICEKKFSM
# T2: human Trop-2 expressed on cells (A-431, NCI-N87, SKBR3, CHO-K1-hTrop2) (human, UniProt P09758 27-323)
# T2 sequence: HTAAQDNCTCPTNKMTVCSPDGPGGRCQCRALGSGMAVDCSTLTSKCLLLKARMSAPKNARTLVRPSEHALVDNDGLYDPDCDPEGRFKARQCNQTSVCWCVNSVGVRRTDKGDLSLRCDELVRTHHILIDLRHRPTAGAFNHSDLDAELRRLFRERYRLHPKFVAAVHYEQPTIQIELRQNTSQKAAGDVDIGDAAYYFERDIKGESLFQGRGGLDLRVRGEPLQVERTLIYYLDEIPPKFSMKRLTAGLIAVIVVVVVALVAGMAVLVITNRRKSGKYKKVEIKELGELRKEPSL
# T3: Human Trop-2 ECD protein (human, UniProt P09758 27-274)
# T3 construct: also called hTrop-2 ECD; not shown: HIS tag (captured on the biosensor via anti-HIS Tag)
# T3 sequence: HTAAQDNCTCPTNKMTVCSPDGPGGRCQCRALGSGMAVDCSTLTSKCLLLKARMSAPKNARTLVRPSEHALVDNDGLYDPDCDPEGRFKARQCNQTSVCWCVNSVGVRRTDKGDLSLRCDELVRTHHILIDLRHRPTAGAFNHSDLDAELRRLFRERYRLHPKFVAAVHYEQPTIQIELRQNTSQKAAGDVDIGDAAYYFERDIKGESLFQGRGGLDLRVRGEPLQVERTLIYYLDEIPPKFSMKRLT
# B1: 2M24 × Trop-2 clone C hG1 (bispecific antibody, V domains shown)
# VH 1: QVQLVQSGAEVKKPGASVKVSCKSSGYTFTDYYIHWVRQAPGQGLEWMGWINPNSGDTNYAQKFQGRITMTRDTSISTAYLELSRLRSDDTAVFYCARNSGSYSFGYWGQGTLVTVSS
# VL 1: DIQMTQSPSSVSASVGDRVTITCRASQGISSWLAWYQQKPGKAPKLLIFGASSLQSGVPSRFSGSGSGTDFTLTVSSLQPEDFATYYCQQAYSFPFTFGPGTKVDIE
# VH 2: QVQLVQSGSELKKPGASVKLSCKASGYTFTSYGMNWVRQAPGQGLEWMGWINTNTGNPTYAQGFTGRFVFSLDTSVSTAYLQISSLKAEDTAVYYCARGYNWNDGDFDYWGQGTLVTVSS
# VL 2: AIQMTQSPSSLSPSVGDRVTITCRASQGIRNDLGWYQQKPGKAPKLLIFAASSLQSGVPSRFSGSGSGTDFTLTISNLQPEDFATYYCLQNYNYPLTFGGGTKVEIK
# notes: Full chains appear only in embodiments and are not tied to the tested molecule; also called anti-Dectin-1 x anti-Trop-2 bispecific antibody; DR02B.77
# B2: 2M24 × Trop-2 clone B hG1 (bispecific antibody, V domains shown)
# VH 1: B1 VH 1
# VL 1: B1 VL 1
# VH 2: QVQLQESGPGLVKPSGTLSLTCAVSGGSISSSNWWSWVRQPPGKGLEWIGEIYHDGSTDYFPSLKSRVTISVDKSKNQFSLKLSSVTAADTAVYYCARDNWGFDYWGQGTLVTVSS
# VL 2: DIVLTQSPGTLSLSPGERATLSCRASQSVSSSYLAWYQQKPGQAPRLLISGASSRATGIPDRFSGSGSGTDFTLTISRLEPEDFAVYYCQQYGSSHRTFGQGTKVEIK
# notes: Full chains appear only in embodiments and are not tied to the tested molecule; also called anti-Dectin-1 x anti-Trop-2 bispecific antibody; DR02B.65
# B3: Dectin-1 2M24.124 x Trop-2 clone C hIgG1 (bispecific antibody)
# anti-Dectin-1 heavy chain: B1 VH 1 with S24A, I34M, S55E, Q65E, L81M, F94Y, S100T, S102A, Q110C
# anti-Dectin-1 light chain: B1 VL 1 with A43C, F49Y, S53D, V75I, S93G, E107K
# anti-Trop-2 heavy chain: B1 VH 2
# anti-Trop-2 light chain: B1 VL 2
# notes: member of group m9; also called 2M24.124xTrop-2 clone C hG1; disulfide-engineered Fab-format bispecific, clone C
# B4: Dectin-1 2M24.131 x Trop-2 clone A hIgG1 (bispecific antibody)
# anti-Dectin-1 scFv-Fc arm: QVQLVQSGAEVKKPGASVKVSCKASGYTFTDYYMHWVRQAPGQGLEWMGWINPNEGDTNYAQKFEGRITMTRDTSISTAYMELSRLRSDDTAVYYCARNTGAYSFGYWGCGTLVTVSSGGGGSGGGGSGGGGSGGGGSDIQMTQSPSSVSASVGDRVTITCRASQGISSWLAWYQQKPGKCPKLLIYGASDLQSGVPSRFSGSGSGTDFTLTISSLQPEDFATYYCQQAYGFPFTFGPGTKVDIKEPK
# anti-Trop-2 heavy chain: QVQLQQSGSELKKPGASVKVSCKASGYTFTNYGMNWVKQAPGQGLKWMGWINTYTGEPTYTDDFKGRFAFSLDTSVSTAYLQISSLKADDTAVYFCARGGFGSSYWYFDVWGQGSLVTVSS
# anti-Trop-2 light chain: DIQLTQSPSSLSASVGDRVSITCKASQDVSIAVAWYQQKPGKAPKLLIYSASYRYTGVPDRFSGSGSGTDFTLTISSLQPEDFAVYYCQQHYITPLTFGAGTKVEIK
# notes: member of group m8; also called 2M24.131xTrop-2 clone A hG1; scFv-format anti-Dectin-1 x anti-Trop-2 bispecific, clone A
# B5: 2M24 × Trop-2 clone A hG1 (bispecific antibody, V domains shown)
# VH 1: B1 VH 1
# VL 1: B1 VL 1
# VH 2: B4 anti-Trop-2 heavy chain
# VL 2: B4 anti-Trop-2 light chain
# notes: also called anti-Dectin-1 x anti-Trop-2 bispecific antibody
# B6: Dectin-1 2M24.131 x Trop-2 clone B hIgG1 (bispecific antibody)
# anti-Dectin-1 scFv-Fc arm: B4 anti-Dectin-1 scFv-Fc arm
# anti-Trop-2 heavy chain: B2 VH 2
# anti-Trop-2 light chain: B2 VL 2
# notes: member of group m8; also called 2M24.131xTrop-2 clone B hG1; scFv-format anti-Dectin-1 x anti-Trop-2 bispecific, clone B
# B7: Dectin-1 2M24.131 x Trop-2 clone C hIgG1 (bispecific antibody)
# anti-Dectin-1 scFv-Fc arm: B4 anti-Dectin-1 scFv-Fc arm
# anti-Trop-2 heavy chain: B1 VH 2
# anti-Trop-2 light chain: B1 VL 2
# notes: member of group m8; also called 2M24.131xTrop-2 clone C hG1; scFv-format anti-Dectin-1 x anti-Trop-2 bispecific, clone C
# Legend:
# [1] = molecular target: T1, human Dectin-1 isoform A on HEK-Blue …; experiment: cell-based or functional assay
# [2] = molecular target: T2, human Trop-2 expressed on cells (A-431, …); experiment: cell-based or functional assay
# [3] = molecular target: T2, human Trop-2 expressed on cells (A-431, …); experiment: flow cytometry on A-431 cells, fluorescent anti-human secondary antibody
# Experimental: (§1) FIGS. 2A-2D show binding assays in which cells expressing human Trop-2 were incubated with anti-Dectin-1 x anti-Trop-2 bispecific antibodies with human IgG1 Fc (as indicated) or isotype control, and binding was measured by flow cytometry using a fluorescently labeled anti-human secondary antibody. Shown are binding of the indicated antibodies to human epidermoid carcinoma A-431 cells (FIG. 2A), human gastric carcinoma NCI-N87 cells (FIG. 2B), human breast cancer SKBR3 cells (FIG. 2C), or CHO-K1 cells expressing human Trop-2 (FIG. 2D).
# (§2) Human cancer cell lines and CHO cells expressing human Trop-2 (CHO-K1-hTrop2 cells) were incubated with the anti-Dectin-1 x anti-Trop-2 bispecific antibodies, Trop-2 clones 15, 45, 76, 77, 63, 64, 65 and 123, or the hIgG1 isotype, followed by a fluorescent anti-human secondary antibody. The primary antibodies were used in an 8-point serial dose titration starting at 300 or 100 nM and diluted 1 to 3.
# [4] = molecular target: T2, human Trop-2 expressed on cells (A-431, …); experiment: flow cytometry on SKBR3 cells, fluorescent anti-human secondary antibody
# Experimental: as §1, §2
# [5] = molecular target: T2, human Trop-2 expressed on cells (A-431, …); experiment: flow cytometry on NCI-N87 cells, fluorescent anti-human secondary antibody
# Experimental: as §1, §2
# [6] = molecular target: T2, human Trop-2 expressed on cells (A-431, …); experiment: flow cytometry on CHO-K1-hTrop2 cells, fluorescent anti-human secondary antibody
# Experimental: as §1, §2
# Human Trop-2 ECD protein = molecular target: T3, Human Trop-2 ECD protein; experiment: BLI, hTrop-2 ECD captured via anti-HIS Tag, bispecific antibody in solution (monovalent)
# Experimental: Monovalent binding affinity was measured by biosensor (BLI). Human Trop-2 ECD protein was captured on biosensor via anti-HIS Tag. On and off rate binding was measured against bispecific antibodies with 1 arm binding to hTrop2 at varying concentrations. On rate and off rate measurements were fitted to generated KD values.
# Monovalent binding affinity of each anti-Dectin-1 x anti-Trop-2 bispecific antibody to the human Trop-2 ECD was also measured by biosensor (BLI).
# [7] = molecular target: T1, human Dectin-1 isoform A on HEK-Blue …; experiment: cell-based or functional assay; remark: listed apart in the source
# [8] = molecular target: T2, human Trop-2 expressed on cells (A-431, …); experiment: flow cytometry on CHO-K1 cells expressing hTrop-2 (sheet title: Binding to Chok1 hTrop2)
# [9] = molecular target: T1, human Dectin-1 isoform A on HEK-Blue …; experiment: cell-based or functional assay; remark: listed apart in the source
# [10] = molecular target: T2, human Trop-2 expressed on cells (A-431, …); experiment: flow cytometry on A431 cells expressing hTrop-2
# [11] = molecular target: human Dectin-1 on HEK cells expressing hDectin-1 (human) (UniProt Q9BXN2); experiment: flow cytometry on HEK cells expressing hDectin-1 (sheet title: Binding to hDec1 on Hek)
Binder,"Dectin-1 pathway activation (SEAP secretion), HEK-Blue hDectin-1a cells in the presence of A-431 cells, EC50 [1] [µg/mL]","Dectin-1 pathway activation (SEAP secretion), HEK-Blue hDectin-1a cells in the presence of CHO-K1-hTrop2 cells, EC50 [1] [µg/mL]","Dectin-1 pathway activation (SEAP secretion), HEK-Blue hDectin-1a cells in the presence of NCI-N87 cells, EC50 [1] [µg/mL]","Dectin-1 pathway activation (SEAP secretion), HEK-Blue hDectin-1a cells in the presence of SKBR3 cells, EC50 [1] [µg/mL]","Induction of phagocytosis in vitro of A-431 cells by human macrophages, EC50 [2] [nM]","Induction of phagocytosis in vitro of NCI-N87 cells by human macrophages, EC50 [2] [nM]","Induction of phagocytosis in vitro of SKBR3 cells by human macrophages, EC50 [2] [nM]",EC50 [3] [nM],EC50 [4] [nM],EC50 [5] [nM],EC50 [6] [nM],Kd (Human Trop-2 ECD protein) [nM],koff (Human Trop-2 ECD protein) [s⁻¹],kon (Human Trop-2 ECD protein) [M⁻¹ s⁻¹],EC50 of SEAP secretion by the hDectin-1 reporter cells (hDec1 Reporter Assay; the Trop-2-expressing cell line is not named) [7] [nM],EC50 (read off the curve) [8] [nM],EC50 of SEAP secretion by the hDectin-1 reporter cells (hDec1 Reporter Assay; the Trop-2-expressing cell line is not named) [9] [nM],binding result [10],EC50 (read off the curve) [11] [nM]
B1,0.08,0.05,0.06,0.05,0.45,0.132,0.319,53.2,28,39.5,7.25,12.9,0.00181,140000,–,–,–,–,–
B2,0.04,0.07,0.03,0.04,0.34,1.12,0.269,7.56,24.2,17.9,4.32,9.55,0.000475,49700,–,–,–,–,–
B3,–,–,–,–,–,–,–,–,–,–,–,–,–,–,0.69,~9,–,–,–
B4,–,–,–,–,–,–,–,–,–,–,–,–,–,–,–,–,1.46,binds,4
B5,0.05,0.06,0.04,0.04,0.31,0.2,0.507,6.12,18.5,11.7,3.78,4.12,0.000891,217000,–,–,–,–,–
B6,–,–,–,–,–,–,–,–,–,–,–,–,–,–,–,–,0.91,binds,3
B7,–,–,–,–,–,–,–,–,–,–,–,–,–,–,–,–,1.49,binds,3
